Measurements reported in patent publication US20090093061A1.

How the values were obtained:
Test in all cases: GroEL-490 bead column capture of denatured serum, ATP elution, LC-MS-MS
[1] = target: 3-hydroxyanthranilate 3,4-dioxygenase (Homo sapiens) (UniProt P46952)
[2] = target: hypothetical protein FLJ22344 (Homo sapiens)
[3] = target: transferrin (Homo sapiens) (UniProt P02787)
[4] = target: apical protein of Xenopus-like (Homo sapiens) (UniProt Q13796)
[5] = target: KIAA0804 protein (Homo sapiens) (UniProt Q8N3P4)
[6] = target: tripartite motif protein TRIM14 isoform alpha (Homo sapiens) (UniProt Q14142)
[7] = target: ankyrin repeat domain 26 (Homo sapiens) (UniProt Q9UPS8)
[8] = target: baculoviral IAP repeat-containing 6 (Homo sapiens) (UniProt Q9NR09)
[9] = target: hypothetical protein XP_378639 (Homo sapiens)
[10] = target: similar to CXYorf1-related protein (Homo sapiens)
[11] = target: synovial sarcoma, X breakpoint 2 isoform a (Homo sapiens) (UniProt Q16385)
[12] = target: hypothetical protein FLJ21439 (Homo sapiens)
[13] = target: retinoblastoma binding protein 8 isoform b (Homo sapiens) (UniProt Q99708)
[14] = target: similar to Ig alpha-2 chain C region (Homo sapiens) (UniProt P25787)
[15] = target: human immunodeficiency virus type I enhancer binding protein 2 (Homo sapiens) (UniProt P31629)
[16] = target: apolipoprotein B precursor (Homo sapiens) (UniProt P04114)
[17] = target: UDP glycosyltransferase 1 family, polypeptide A9 (Homo sapiens) (UniProt O60656)
[18] = target: odd Oz/Ten-m homolog 3 (Homo sapiens) (UniProt Q9P273)
[19] = target: hypothetical protein FLJ12178 (Homo sapiens)
[20] = target: albumin precursor (Homo sapiens) (UniProt P02768)
[21] = target: SMC5 protein (Homo sapiens) (UniProt Q8IY18)
[22] = target: UDP glycosyltransferase 2 family, polypeptide B7 (Homo sapiens) (UniProt P16662)
[23] = target: 3-phosphoinositide dependent protein kinase-1 (Homo sapiens) (UniProt O15530)
[24] = target: ceruloplasmin (ferroxidase) (Homo sapiens) (UniProt P00450)
[25] = target: brefeldin A-inhibited guanine nucleotide-exchange protein 1 (Homo sapiens) (UniProt Q9Y6D6)
[26] = target: POU domain, class 2, transcription factor 1 (Homo sapiens) (UniProt P14859)
[27] = target: Rho GTPase activating protein 21 (Homo sapiens) (UniProt Q5T5U3)
[28] = target: MAP/ERK kinase kinase 4 isoform a (Homo sapiens) (UniProt Q9Y6R4)
[29] = target: phosphoinositide-specific phospholipase C beta 1 isoform a (UniProt Q9NQ66)
[30] = target: microfilament and actin filament cross-linker protein isoform a (UniProt Q9UPN3)
[31] = target: MAX dimerization protein 5 (Homo sapiens) (UniProt Q8IWI9)
[32] = target: PDZ domain-containing guanine nucleotide exchange factor I (Homo sapiens) (UniProt Q8TEU7)
[33] = target: LUC7-liKe 2 (Homo sapiens) (UniProt Q9Y383)
[34] = target: Hpall tiny fragments locus 9C isoform2 (Homo sapiens) (UniProt Q8IZ69)

Chain of GroEL having Aspartate 490 substituted with Cysteine, biotinylated and conjugated onto NeutrAvidin beads (A1AJ51 whole entry D490C): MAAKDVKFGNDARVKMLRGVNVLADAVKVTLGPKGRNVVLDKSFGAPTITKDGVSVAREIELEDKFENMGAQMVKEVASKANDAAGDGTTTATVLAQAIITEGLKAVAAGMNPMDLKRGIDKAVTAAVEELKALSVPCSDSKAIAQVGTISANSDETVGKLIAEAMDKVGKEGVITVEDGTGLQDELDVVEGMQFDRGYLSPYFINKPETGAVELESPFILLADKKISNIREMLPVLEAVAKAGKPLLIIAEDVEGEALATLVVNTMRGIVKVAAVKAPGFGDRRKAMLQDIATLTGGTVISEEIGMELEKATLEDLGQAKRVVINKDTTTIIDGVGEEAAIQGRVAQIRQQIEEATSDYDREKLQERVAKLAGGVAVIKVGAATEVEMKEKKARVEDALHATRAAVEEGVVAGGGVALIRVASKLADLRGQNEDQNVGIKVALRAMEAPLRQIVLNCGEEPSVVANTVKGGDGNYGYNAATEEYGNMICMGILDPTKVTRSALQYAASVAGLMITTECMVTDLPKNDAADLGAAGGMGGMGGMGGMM
Chain of ceruloplasmin (ferroxidase) (Homo sapiens) (P00450 20-1065 limits assumed): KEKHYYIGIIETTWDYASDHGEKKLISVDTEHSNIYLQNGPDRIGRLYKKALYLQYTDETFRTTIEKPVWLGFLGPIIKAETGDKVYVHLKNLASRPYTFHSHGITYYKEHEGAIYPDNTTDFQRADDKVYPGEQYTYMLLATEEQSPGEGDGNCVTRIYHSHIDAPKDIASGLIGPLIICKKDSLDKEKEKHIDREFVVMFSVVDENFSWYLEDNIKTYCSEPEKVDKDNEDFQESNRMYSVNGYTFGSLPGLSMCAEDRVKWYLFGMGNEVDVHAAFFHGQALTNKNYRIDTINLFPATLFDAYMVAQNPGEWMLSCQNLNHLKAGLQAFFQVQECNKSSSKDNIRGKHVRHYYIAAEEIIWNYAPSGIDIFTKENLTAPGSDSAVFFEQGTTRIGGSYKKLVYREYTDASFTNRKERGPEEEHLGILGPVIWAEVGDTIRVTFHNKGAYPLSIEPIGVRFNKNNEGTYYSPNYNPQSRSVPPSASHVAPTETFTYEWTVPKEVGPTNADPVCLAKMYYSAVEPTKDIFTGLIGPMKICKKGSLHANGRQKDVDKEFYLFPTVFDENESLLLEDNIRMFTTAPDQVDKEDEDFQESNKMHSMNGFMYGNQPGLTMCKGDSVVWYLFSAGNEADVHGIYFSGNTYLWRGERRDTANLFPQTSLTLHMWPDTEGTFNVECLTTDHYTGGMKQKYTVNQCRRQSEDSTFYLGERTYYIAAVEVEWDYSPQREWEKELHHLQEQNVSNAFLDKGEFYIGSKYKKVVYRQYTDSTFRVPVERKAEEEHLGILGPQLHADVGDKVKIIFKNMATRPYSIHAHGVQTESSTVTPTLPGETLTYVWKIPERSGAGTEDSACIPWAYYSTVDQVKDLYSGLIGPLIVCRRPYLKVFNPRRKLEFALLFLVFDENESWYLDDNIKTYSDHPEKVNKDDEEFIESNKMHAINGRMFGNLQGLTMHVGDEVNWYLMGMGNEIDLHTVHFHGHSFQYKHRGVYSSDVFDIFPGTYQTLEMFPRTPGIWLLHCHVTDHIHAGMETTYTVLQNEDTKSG
Chain of phosphoinositide-specific phospholipase C beta 1 isoform a (Q9NQ66 whole entry, canonical isoform): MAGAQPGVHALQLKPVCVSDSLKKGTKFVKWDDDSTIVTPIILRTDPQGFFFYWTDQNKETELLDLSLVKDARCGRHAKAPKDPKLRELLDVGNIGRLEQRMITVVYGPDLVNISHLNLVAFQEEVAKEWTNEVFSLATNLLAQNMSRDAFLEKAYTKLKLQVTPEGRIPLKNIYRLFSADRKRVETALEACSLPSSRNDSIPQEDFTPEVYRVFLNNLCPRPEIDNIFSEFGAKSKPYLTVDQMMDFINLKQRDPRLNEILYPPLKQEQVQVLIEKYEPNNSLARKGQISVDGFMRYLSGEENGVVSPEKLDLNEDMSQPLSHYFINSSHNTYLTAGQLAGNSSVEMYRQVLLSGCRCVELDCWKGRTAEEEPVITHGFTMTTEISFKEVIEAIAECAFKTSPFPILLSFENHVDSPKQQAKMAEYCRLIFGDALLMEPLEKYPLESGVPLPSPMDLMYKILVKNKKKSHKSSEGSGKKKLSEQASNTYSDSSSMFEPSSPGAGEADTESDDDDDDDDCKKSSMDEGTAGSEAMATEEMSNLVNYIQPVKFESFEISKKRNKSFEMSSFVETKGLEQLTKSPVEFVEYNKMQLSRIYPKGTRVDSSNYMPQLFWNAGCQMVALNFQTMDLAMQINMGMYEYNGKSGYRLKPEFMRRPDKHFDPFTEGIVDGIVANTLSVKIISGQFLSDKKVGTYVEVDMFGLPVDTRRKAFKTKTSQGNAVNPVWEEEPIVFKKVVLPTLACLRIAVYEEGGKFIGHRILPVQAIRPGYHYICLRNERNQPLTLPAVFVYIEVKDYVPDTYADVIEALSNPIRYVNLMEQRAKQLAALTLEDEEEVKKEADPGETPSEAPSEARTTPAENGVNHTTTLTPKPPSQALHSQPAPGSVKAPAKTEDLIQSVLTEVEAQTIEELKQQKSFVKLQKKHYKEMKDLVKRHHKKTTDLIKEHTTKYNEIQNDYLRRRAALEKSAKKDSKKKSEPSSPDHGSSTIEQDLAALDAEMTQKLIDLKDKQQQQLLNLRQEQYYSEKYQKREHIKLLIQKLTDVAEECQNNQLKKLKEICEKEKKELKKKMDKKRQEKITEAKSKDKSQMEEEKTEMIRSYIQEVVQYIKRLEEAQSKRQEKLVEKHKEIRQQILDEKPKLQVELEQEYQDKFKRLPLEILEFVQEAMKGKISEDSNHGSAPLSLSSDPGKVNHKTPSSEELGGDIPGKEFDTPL
Chain of Rho GTPase activating protein 21 (Homo sapiens) (Q5T5U3 whole entry, canonical isoform): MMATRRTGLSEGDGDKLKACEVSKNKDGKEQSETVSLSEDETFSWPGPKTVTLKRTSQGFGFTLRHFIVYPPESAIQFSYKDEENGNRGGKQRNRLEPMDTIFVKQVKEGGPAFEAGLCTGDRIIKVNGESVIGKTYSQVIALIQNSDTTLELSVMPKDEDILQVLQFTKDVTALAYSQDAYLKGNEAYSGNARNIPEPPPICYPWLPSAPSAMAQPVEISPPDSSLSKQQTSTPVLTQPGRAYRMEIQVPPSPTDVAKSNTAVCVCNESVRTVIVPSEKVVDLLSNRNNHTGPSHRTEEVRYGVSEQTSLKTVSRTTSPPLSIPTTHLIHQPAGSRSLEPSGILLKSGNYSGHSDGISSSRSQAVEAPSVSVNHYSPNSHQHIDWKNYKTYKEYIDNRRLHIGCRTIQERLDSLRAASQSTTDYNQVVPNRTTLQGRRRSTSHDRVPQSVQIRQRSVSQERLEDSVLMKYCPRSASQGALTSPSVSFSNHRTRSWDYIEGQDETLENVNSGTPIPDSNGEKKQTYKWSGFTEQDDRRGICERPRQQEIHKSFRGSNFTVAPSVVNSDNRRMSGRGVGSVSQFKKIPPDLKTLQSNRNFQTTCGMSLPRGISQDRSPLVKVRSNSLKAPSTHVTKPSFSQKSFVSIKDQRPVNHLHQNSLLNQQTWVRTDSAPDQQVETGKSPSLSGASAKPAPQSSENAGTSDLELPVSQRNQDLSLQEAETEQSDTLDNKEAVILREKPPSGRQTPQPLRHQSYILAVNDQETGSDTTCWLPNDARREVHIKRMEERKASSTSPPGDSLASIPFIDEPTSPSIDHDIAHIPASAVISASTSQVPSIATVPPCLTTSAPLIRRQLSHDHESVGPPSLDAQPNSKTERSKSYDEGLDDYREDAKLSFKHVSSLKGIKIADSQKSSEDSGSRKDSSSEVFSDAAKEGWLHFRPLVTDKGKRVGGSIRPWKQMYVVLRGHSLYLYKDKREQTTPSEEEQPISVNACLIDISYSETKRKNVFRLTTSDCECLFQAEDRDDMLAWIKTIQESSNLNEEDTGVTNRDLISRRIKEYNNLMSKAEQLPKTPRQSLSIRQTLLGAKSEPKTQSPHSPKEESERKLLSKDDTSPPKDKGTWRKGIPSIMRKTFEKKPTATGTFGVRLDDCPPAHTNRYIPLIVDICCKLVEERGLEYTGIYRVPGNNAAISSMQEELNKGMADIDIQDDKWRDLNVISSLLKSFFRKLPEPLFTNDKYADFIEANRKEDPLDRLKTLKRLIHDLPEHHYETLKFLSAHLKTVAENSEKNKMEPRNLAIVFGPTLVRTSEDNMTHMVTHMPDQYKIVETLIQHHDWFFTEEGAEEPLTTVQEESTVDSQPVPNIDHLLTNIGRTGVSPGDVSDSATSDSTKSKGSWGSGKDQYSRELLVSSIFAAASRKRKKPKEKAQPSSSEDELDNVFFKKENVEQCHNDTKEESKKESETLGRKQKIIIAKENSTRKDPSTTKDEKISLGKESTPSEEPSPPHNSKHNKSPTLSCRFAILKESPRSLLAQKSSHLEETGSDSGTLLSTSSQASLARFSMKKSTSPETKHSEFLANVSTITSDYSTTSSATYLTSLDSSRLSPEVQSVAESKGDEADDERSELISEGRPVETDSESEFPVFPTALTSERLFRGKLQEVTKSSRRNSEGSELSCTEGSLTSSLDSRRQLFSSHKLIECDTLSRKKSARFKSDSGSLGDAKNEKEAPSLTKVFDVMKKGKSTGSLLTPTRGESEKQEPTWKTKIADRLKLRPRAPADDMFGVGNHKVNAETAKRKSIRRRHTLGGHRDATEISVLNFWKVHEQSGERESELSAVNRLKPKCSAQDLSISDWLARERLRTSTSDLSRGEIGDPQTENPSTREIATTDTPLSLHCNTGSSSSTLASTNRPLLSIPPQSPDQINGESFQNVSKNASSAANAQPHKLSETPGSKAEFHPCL
Chain of 3-hydroxyanthranilate 3,4-dioxygenase (Homo sapiens) (P46952 whole entry): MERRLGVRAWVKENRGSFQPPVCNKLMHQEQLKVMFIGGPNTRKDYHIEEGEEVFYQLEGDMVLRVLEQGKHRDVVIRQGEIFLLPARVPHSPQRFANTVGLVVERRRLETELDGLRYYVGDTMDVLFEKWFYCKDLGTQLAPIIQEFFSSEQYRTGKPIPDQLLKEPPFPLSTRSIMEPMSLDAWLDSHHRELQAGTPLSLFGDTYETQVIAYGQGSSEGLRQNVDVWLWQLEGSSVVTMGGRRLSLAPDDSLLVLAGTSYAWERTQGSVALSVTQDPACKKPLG

Substance “GroEL having Aspartate 490 substituted with Cysteine, biotinylated and conjugated onto NeutrAvidin beads (from UniProt A1AJ51 1-548)” has a Spectrum Count [1] of 9 count, a Spectrum Count [2] of 10 count and a Spectrum Count [3] of 60 count. For the same substance, the Spectrum Count [4] was 11 count, the Spectrum Count [5] was 13 count and the Spectrum Count [6] was 21 count. The Spectrum Count [7] was 9 count, the Spectrum Count [8] was 113 count and the Spectrum Count [9] was 14 count. It also gave a Spectrum Count [10] of 110 count, a Spectrum Count [11] of 21 count and a Spectrum Count [12] of 11 count. The Spectrum Count [13] was 22 count, the Spectrum Count [14] was 19 count and the Spectrum Count [15] was 14 count. The Spectrum Count [16] was 19 count, the Spectrum Count [17] was 13 count and the Spectrum Count [18] was 14 count. It also gave a Spectrum Count [19] of 9 count, a Spectrum Count [20] of 475 count and a Spectrum Count [21] of 9 count. The Spectrum Count [22] was 26 count, the Spectrum Count [23] was 13 count and the Spectrum Count [24] was 19 count. The Spectrum Count [25] was 11 count, the Spectrum Count [26] was 11 count and the Spectrum Count [27] was 11 count. The Spectrum Count [28] was 13 count, the Spectrum Count [29] was 34 count and the Spectrum Count [30] was 10 count. The Spectrum Count [31] was 33 count, the Spectrum Count [32] was 9 count and the Spectrum Count [33] was 15 count. The Spectrum Count [34] was 34 count.
